Data: patent US6448071
Values belong to the substance of their own block, whether it stands above or below them.

Legend:
[1] = target: pMCMV loaded H-2 L^d (murine) (UniProt P01897)
[2] = target: QL9 loaded H-2 L^d (murine) (UniProt P01897); assay: flow cytometry, direct saturation of FITC-30.5.7 Fab on peptide-loaded RMA-S L^d cells
[3] = target: SL9 loaded H-2 L^d (murine) (UniProt P01897); assay: as above
[4] = target: p2Ca loaded H-2 L^d (murine) (UniProt P01897); assay: as above
[5] = target: H-2 L^d naturally loaded with endogenous peptides on cells (RENCA; MC57G L^d) (murine) (UniProt P01897); assay: direct flow cytometry on RENCA cells
[6] = target: unloaded H-2 L^d on RMA-S L^d cells (murine) (UniProt P01897); assay: direct flow cytometry on RMA-S L^d cells without added peptide
[7] = target: unloaded H-2 L^d on RMA-S L^d cells (murine) (UniProt P01897); assay: direct flow cytometry on RMA-S L^d cells
[8] = target: SIY loaded H-2 K^b on T2 K^b cells (mouse) (UniProt P01901); assay: direct flow cytometry on peptide-loaded T2 K^b cells
[9] = target: pVSV loaded H-2 K^b on T2 K^b cells (mouse) (UniProt P01901); assay: as above
[10] = target: SIY loaded H-2 K^bm3 on T2 K^bm3 cells (mouse); assay: direct flow cytometry on peptide-loaded T2 K^bm3 cells
[11] = target: SL9 loaded H-2 L^d (murine) (UniProt P01897); assay: direct flow cytometry on peptide-loaded RMA-S L^d cells
[12] = target: tum^- loaded H-2 L^d (murine) (UniProt P01897); assay: as above
[13] = target: p2Ca loaded H-2 L^d (murine) (UniProt P01897); assay: flow cytometry competition with constant FITC-30.5.7 Fab on peptide-loaded RMA-S L^d cells

soluble divalent 2C TcR/Ig, sequence (A2KF29 whole entry, looked up, tested part not stated): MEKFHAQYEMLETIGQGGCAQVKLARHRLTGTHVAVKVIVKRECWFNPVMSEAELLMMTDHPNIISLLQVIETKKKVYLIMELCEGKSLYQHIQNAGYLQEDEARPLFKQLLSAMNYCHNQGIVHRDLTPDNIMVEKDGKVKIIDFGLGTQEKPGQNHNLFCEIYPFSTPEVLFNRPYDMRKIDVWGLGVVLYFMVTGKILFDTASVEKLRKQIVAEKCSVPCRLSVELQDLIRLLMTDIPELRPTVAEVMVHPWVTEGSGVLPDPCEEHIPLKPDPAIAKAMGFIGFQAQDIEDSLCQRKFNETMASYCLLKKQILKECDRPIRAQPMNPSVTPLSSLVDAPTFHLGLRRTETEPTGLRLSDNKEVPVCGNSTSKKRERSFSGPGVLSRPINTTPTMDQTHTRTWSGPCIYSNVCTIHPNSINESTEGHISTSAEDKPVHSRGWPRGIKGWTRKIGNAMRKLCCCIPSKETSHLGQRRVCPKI
p2Ca loaded H-2 L^d (murine), sequence (P01897 25-309): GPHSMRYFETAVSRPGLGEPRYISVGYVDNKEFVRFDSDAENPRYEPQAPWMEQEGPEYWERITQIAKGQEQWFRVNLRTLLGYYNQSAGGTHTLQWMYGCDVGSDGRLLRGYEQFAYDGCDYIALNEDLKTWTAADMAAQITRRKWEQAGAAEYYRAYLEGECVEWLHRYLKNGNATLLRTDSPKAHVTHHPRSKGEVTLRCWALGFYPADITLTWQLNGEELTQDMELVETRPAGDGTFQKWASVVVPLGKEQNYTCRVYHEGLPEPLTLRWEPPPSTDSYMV
unloaded H-2 L^d on RMA-S L^d cells (murine), sequence (P01897 25-309): as above
SL9 loaded H-2 L^d (murine), sequence (P01897 25-309): as above
SIY loaded H-2 K^b on T2 K^b cells (mouse), sequence (P01901 22-369): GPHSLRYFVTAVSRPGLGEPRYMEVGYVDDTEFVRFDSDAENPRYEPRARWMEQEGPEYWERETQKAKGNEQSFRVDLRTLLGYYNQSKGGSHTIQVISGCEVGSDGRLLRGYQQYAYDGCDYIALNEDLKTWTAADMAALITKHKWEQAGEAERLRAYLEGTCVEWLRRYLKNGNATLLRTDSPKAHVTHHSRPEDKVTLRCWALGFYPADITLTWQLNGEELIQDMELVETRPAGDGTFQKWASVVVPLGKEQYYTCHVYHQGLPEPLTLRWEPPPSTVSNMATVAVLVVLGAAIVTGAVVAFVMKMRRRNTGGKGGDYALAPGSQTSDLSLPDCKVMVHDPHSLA
pVSV loaded H-2 K^b on T2 K^b cells (mouse), sequence (P01901 22-369): as above
pMCMV loaded H-2 L^d (murine), sequence (P01897 25-309): as the sequence (P01897 25-309) above
QL9 loaded H-2 L^d (murine), sequence (P01897 25-309): as above
tum^- loaded H-2 L^d (murine), sequence (P01897 25-309): as above

Substance: FITC labeled 30.5.7 Fab
Kd [1]: 4.8 nM
Kd [2]: 12.2 nM
Kd [3]: 4.8 to 6.4 nM
Kd [4]: 5.8 nM

fold increase of reactivity on γ-IFN treated cells (5-50 units/ml) over untreated cells [5]: 5 to 6 fold
fold increase of mean channel fluorescence, cells at 27° C. against cells at 37° C. [6]: 5 fold
Substance: mAb 30.5.7 (antibody)

Substance: soluble divalent 2C TcR/Ig (from UniProt A2KF29)
MCF [7]: 10 MCF
MCF [8]: 276 MCF
MCF [9]: 14 MCF
MCF [10]: 36 MCF
MCF [11]: 100 MCF
MCF [12]: 10 MCF
Kapp [13]: 108 nM
